*1 amine or outer side, *2 acyl side, *3 side chain or, on linkers, in order; H or OH if unused. Where a SMILES comes first, the peptide text is derived from it. [ ]: non-standard residue; d: D form. N(2-mercaptoethyl)Gly = O=C(CN(CCS[*:3])[*:1])[*:2]; NMeS = CN[C@@H](CO)C(=O)O
Columns and labels:
[1] = target: T1, HA (H1N1 hemagglutinin, Cat No.: Z03181, GenScript) (Influenza A virus, UniProt C3W5S1); assay: biochemical; type: binding
T1 construct: Full-length recombinant HA (His-Tag) was immobilized; purchased GenScript Z03181-100

[2] = target: Full-length recombinant HA (His-Tag), H1N1 hemagglutinin, GenScript Cat No. Z03181 (influenza A virus H1N1); assay: SPR
[3] = target: Full-length recombinant HA (His-Tag), H1N1 hemagglutinin, GenScript Cat No. Z03181 (influenza A virus H1N1); assay: MST; labelled His-HA (NT647-HA) held constant, compound in 16 1:1 serial dilutions from 50 µM, PBS, 10 min at rt, standard-treated capillaries, Monolith NT.115pico, 10% LED power, high MST power, triplicate
[4] = tested on: A/Parma/24/09 H1N1 virus; design: method as in Scala et al. (2017) [23]; settings: read-out: IC50 (peptide concentration that inhibits virus-induced hemagglutination by 50%), reference peptides, ref Scala et al. (2017) [23]; cited from earlier work
[5] = tested on: A/Parma/24/09 H1N1 virus; design: method as in Scala et al. (2017) [23]; settings: read-out: EC50 (concentration that reduced cytopathic effect by 50%); reference peptides; ref Scala et al. (2017) [23]; cited from earlier work

T1 sequence (C3W5S1 entry or part of it, added parts left off): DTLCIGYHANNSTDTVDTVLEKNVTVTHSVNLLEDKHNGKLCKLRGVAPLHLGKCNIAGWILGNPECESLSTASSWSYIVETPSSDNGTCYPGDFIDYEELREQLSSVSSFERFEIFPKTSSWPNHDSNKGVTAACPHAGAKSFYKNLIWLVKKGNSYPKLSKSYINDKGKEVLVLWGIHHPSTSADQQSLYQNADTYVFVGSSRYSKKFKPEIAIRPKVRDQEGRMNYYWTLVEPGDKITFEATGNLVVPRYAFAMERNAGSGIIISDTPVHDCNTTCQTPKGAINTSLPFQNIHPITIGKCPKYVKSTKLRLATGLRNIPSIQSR

Molecule | Kd [2] | Kd [3] | other results
CC(=O)N[C@@H](CO)C(=O)N[C@@H](CCCCN)C(=O)N[C@@H](Cc1c[nH]cn1)C(=O)N(C)[C@@H](CO)C(N)=O [Peptide 10, SKH(N-Me)S] (Ac-SKH[NMeS]-NH2) | – | – | Kd [1]: 3040 ± 850 nM
CC(=O)N[C@@H](CO)C(=O)N[C@@H](CC(C)C)C(=O)N[C@@H](CC(=O)O)C(=O)N(CCS)CC(N)=O [Peptide 14, SLDNhC] (Ac-SLD[N(2-mercaptoethyl)Gly]-NH2) | – | – | Kd [1]: 45.9 ± 10 nM
CC(=O)N[C@@H](CO)C(=O)N[C@@H](CCCCN)C(=O)N(CC(=O)N[C@@H](CO)C(N)=O)Cc1c[nH]cn1 [Peptide 17, SKNHS] | – | – | Kd [1]: 3070 ± 790 nM
(N-Me)SKHS (peptide) | 4190 nM | 336 nM | –
(N-Me)SLDC (peptide) | 7600 nM | 24800 nM | –
NhSKHS (peptide) | 2090 nM | 7400 nM | –
NhSLDC (peptide) | 6550 nM | 67.2 nM | –
S(N-Me)KHS (peptide) | 8330 nM | 7930 nM | –
S(N-Me)LDC (peptide) | 580 nM | 32.5 nM | –
SK(N-Me)HS (peptide) | 1260 nM | 52.8 nM | –
SKH(N-Me)S (peptide) | – | 3040 nM | –
SKHNhS (peptide) | 430 nM | 49.1 nM | –
SKHS [Peptide 2] | – | – | IC50 [4]: 1.5 ± 0.7 nM
SKNHS (peptide) | – | 3070 nM | –
SL(N-Me)DC (peptide) | – | 8800 nM | –
SLD(N-Me)C (peptide) | 3800 nM | 142 nM | –
SLDC [Peptide 1] | – | – | IC50 [4]: 6 ± 3 nM; EC50 [5]: 0.0046 nM
SLDNhC (peptide) | – | 45.9 nM | –
SLNDC (peptide) | – | 1340 nM | –
SNKHS (peptide) | 1700 nM | 39.1 nM | –
SNLDC (peptide) | 3810 nM | 701 nM | –

— PMC10531517, “Rational Design of Novel Peptidomimetics against Influenza A Virus: Biological and Computational Studies” (International Journal of Molecular Sciences, 2023)
